Assay results from the supplement of paper PMC7877785.
± gives the uncertainty stated by the source.

Experiment: self-splicing fitness, log relative to wild type (ln ratio); higher = more splicing; Tetrahymena group I intron in knt gene, E. coli kanamycin selection, DiMSum; sequences stand for … in CUCUCU…GGAGGGAAAAGUUAUCAGGCAUGCACCUGGUAGCUAGUCUUUAAACCAAUAGAUUGCAUCGGUUUAAAAGGCAAGACCGUCAAAUUGCGGGAAAGGGGUCAACAGCCGUUCAGUACCAAGUCUCAGGGGAAACUUUGAGAUGGCCUUGCAAAGGGUAUGGUAAUAAGCUGACGGACAUGGUCCUAACCACGCAGCCAAGUCCUAAGUCAACAGAUCUUCUGUUGAUAUGGAUGCAGUUCACAGACUAAAUGUCGGUCGGGGAAGAUGUAUUCUUCUCAUAAGAUAUAGUCGGACCUCUCCUUAAUGGGAGCUAGCGGAUGAAGUGAUGCAACACUGGAGCCGCUGGGAACUAAUUUGUAUGCGAAAGUAUAUUGAUUAGUUUUGGAGUACUCGUGGUCG
Method in brief: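 Six replicate transformations of E. coli BL21(DE3) with a pET-22b(+) library were grown overnight at 37°C or 30°C. The library randomised all eight P1ex-region intron nucleotides, the intron lying in the knt kanamycin-resistance gene, and plates were LB agar with or without 25 μg/mL kanamycin plus 100 μg/mL carbenicillin, 50 μM IPTG and 0.2% rhamnose. Pooled colonies were amplicon-sequenced on an Illumina HiSeq 2500, and fitness is the DiMSum error-weighted combination of wild-type-normalised replicate fold changes, kanamycin versus none.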

Sequence: CGGAAGCAAUAUUACGUAUU
- self-splicing fitness (ln) (30 °C): -3.43 ± 0.28
- self-splicing fitness (ln) (37 °C): -3.37 ± 0.37

Sequence: GCCAAGCAAUAUUACGGUCA
- self-splicing fitness (ln) (30 °C): -1.59 ± 0.078
- self-splicing fitness (ln) (37 °C): -0.271 ± 0.067

Sequence: GGCGAGCAAUAUUACGAUAC
- self-splicing fitness (ln) (30 °C): -2.02 ± 0.37
- self-splicing fitness (ln) (37 °C): -0.796 ± 0.35

Sequence: CUUUAGCAAUAUUACGUAGA
- self-splicing fitness (ln) (30 °C): -2.52 ± 0.22
- self-splicing fitness (ln) (37 °C): -2.53 ± 0.33

Sequence: CGUAAGCAAUAUUACGGACC
- self-splicing fitness (ln) (30 °C): -0.744 ± 0.11
- self-splicing fitness (ln) (37 °C): -0.0128 ± 0.14

Sequence: CCAUAGCAAUAUUACGGAAG
- self-splicing fitness (ln) (30 °C): -3.19 ± 0.16
- self-splicing fitness (ln) (37 °C): -1.67 ± 0.14

Sequence: CAUCAGCAAUAUUACGCCCA
- self-splicing fitness (ln) (30 °C): -2.9 ± 0.23
- self-splicing fitness (ln) (37 °C): -2.1 ± 0.21

Sequence: CCUGAGCAAUAUUACGUAUU
- self-splicing fitness (ln) (30 °C): -2.38 ± 0.16
- self-splicing fitness (ln) (37 °C): -2.98 ± 0.21

Sequence: AGGCAGCAAUAUUACGUGAG
- self-splicing fitness (ln) (30 °C): -0.654 ± 0.066
- self-splicing fitness (ln) (37 °C): -0.526 ± 0.09

Sequence: GCCGAGCAAUAUUACGAUCA
- self-splicing fitness (ln) (30 °C): -1.91 ± 0.12
- self-splicing fitness (ln) (37 °C): -1.69 ± 0.15

Sequence: AAUAAGCAAUAUUACGCCGG
- self-splicing fitness (ln) (30 °C): -1.87 ± 0.13
- self-splicing fitness (ln) (37 °C): -1.07 ± 0.18

Sequence: UGACAGCAAUAUUACGAAAA
- self-splicing fitness (ln) (30 °C): -2.4 ± 0.35
- self-splicing fitness (ln) (37 °C): -1.29 ± 0.19

Sequence: AAGCAGCAAUAUUACGCUUC
- self-splicing fitness (ln) (30 °C): -2.97 ± 0.18
- self-splicing fitness (ln) (37 °C): -2.81 ± 0.26

Sequence: UGACAGCAAUAUUACGUGCC
- self-splicing fitness (ln) (30 °C): -1.3 ± 0.12
- self-splicing fitness (ln) (37 °C): -1.58 ± 0.15

Sequence: UAGAAGCAAUAUUACGCACA
- self-splicing fitness (ln) (30 °C): -0.416 ± 0.098
- self-splicing fitness (ln) (37 °C): -0.144 ± 0.16

Sequence: CGCGAGCAAUAUUACGGGGU
- self-splicing fitness (ln) (30 °C): -4.28 ± 0.23
- self-splicing fitness (ln) (37 °C): -2.95 ± 0.22

Sequence: GAGUAGCAAUAUUACGAAUA
- self-splicing fitness (ln) (30 °C): -2 ± 0.14
- self-splicing fitness (ln) (37 °C): -1.76 ± 0.14

Sequence: CUGUAGCAAUAUUACGUUGG
- self-splicing fitness (ln) (30 °C): -3.56 ± 0.13
- self-splicing fitness (ln) (37 °C): -1.46 ± 0.11

Sequence: GGGUAGCAAUAUUACGCCAU
- self-splicing fitness (ln) (30 °C): -2.4 ± 0.26
- self-splicing fitness (ln) (37 °C): -1.32 ± 0.19

Sequence: UGAUAGCAAUAUUACGAGCC
- self-splicing fitness (ln) (30 °C): -3.7 ± 0.47

Sequence: UCCGAGCAAUAUUACGACUA
- self-splicing fitness (ln) (30 °C): -2.51 ± 0.28
- self-splicing fitness (ln) (37 °C): -2.21 ± 0.27

Sequence: GCCAAGCAAUAUUACGCACC
- self-splicing fitness (ln) (30 °C): -0.566 ± 0.22
- self-splicing fitness (ln) (37 °C): 0.932 ± 0.41

Sequence: CCCCAGCAAUAUUACGAAAG
- self-splicing fitness (ln) (30 °C): -4.79 ± 0.23
- self-splicing fitness (ln) (37 °C): -1.93 ± 0.12

Sequence: ACAGAGCAAUAUUACGGUUA
- self-splicing fitness (ln) (30 °C): -2.77 ± 0.21
- self-splicing fitness (ln) (37 °C): -3.05 ± 0.33

Sequence: GGAAAGCAAUAUUACGCUGC
- self-splicing fitness (ln) (30 °C): -3.32 ± 0.38

Sequence: AGAGAGCAAUAUUACGGUAU
- self-splicing fitness (ln) (30 °C): -3.91 ± 0.37
- self-splicing fitness (ln) (37 °C): -3.55 ± 0.29

Sequence: GGCCAGCAAUAUUACGGAGG
- self-splicing fitness (ln) (30 °C): -2.39 ± 0.11
- self-splicing fitness (ln) (37 °C): -1.14 ± 0.14

Sequence: GAGUAGCAAUAUUACGCAGU
- self-splicing fitness (ln) (30 °C): -3.14 ± 0.39
- self-splicing fitness (ln) (37 °C): -2.03 ± 0.22

Sequence: AGGGAGCAAUAUUACGCAGC
- self-splicing fitness (ln) (30 °C): -2.92 ± 0.47

Sequence: CGCAAGCAAUAUUACGCAAU
- self-splicing fitness (ln) (30 °C): -2.94 ± 0.21
- self-splicing fitness (ln) (37 °C): -2.14 ± 0.26

Sequence: AUGAAGCAAUAUUACGAUGC
- self-splicing fitness (ln) (30 °C): -1.95 ± 0.13
- self-splicing fitness (ln) (37 °C): -0.813 ± 0.17

Sequence: CUGUAGCAAUAUUACGUUUC
- self-splicing fitness (ln) (30 °C): -3.58 ± 0.19
- self-splicing fitness (ln) (37 °C): -2.99 ± 0.32

Sequence: AGGCAGCAAUAUUACGUAAG
- self-splicing fitness (ln) (30 °C): -1.77 ± 0.13
- self-splicing fitness (ln) (37 °C): -0.486 ± 0.17

Sequence: UGAAAGCAAUAUUACGACAA
- self-splicing fitness (ln) (30 °C): 0.219 ± 0.1
- self-splicing fitness (ln) (37 °C): -0.111 ± 0.13

Sequence: UAUCAGCAAUAUUACGCGGU
- self-splicing fitness (ln) (30 °C): -2.68 ± 0.13
- self-splicing fitness (ln) (37 °C): -2.97 ± 0.27

Sequence: UUUUAGCAAUAUUACGUGGC
- self-splicing fitness (ln) (30 °C): -3.09 ± 0.42

Sequence: UAACAGCAAUAUUACGUGGA
- self-splicing fitness (ln) (30 °C): -3.11 ± 0.14
- self-splicing fitness (ln) (37 °C): -1.44 ± 0.08

Sequence: ACGUAGCAAUAUUACGCUGA
- self-splicing fitness (ln) (30 °C): -1.81 ± 0.089
- self-splicing fitness (ln) (37 °C): -0.483 ± 0.085

Sequence: GCCAAGCAAUAUUACGCCUA
- self-splicing fitness (ln) (30 °C): -0.609 ± 0.16
- self-splicing fitness (ln) (37 °C): -0.61 ± 0.18

Sequence: CAACAGCAAUAUUACGCGAG
- self-splicing fitness (ln) (30 °C): -2.29 ± 0.089
- self-splicing fitness (ln) (37 °C): -0.359 ± 0.066

Sequence: GCAGAGCAAUAUUACGUACU
- self-splicing fitness (ln) (30 °C): -3.98 ± 0.3
- self-splicing fitness (ln) (37 °C): -2.29 ± 0.32

Sequence: CUACAGCAAUAUUACGCGUC
- self-splicing fitness (ln) (30 °C): -3.92 ± 0.26
- self-splicing fitness (ln) (37 °C): -2.77 ± 0.24

Sequence: CCAAAGCAAUAUUACGGGAA
- self-splicing fitness (ln) (30 °C): -3.01 ± 0.18
- self-splicing fitness (ln) (37 °C): -3.66 ± 0.3

Sequence: CUAAAGCAAUAUUACGCACG
- self-splicing fitness (ln) (30 °C): -0.0346 ± 0.092
- self-splicing fitness (ln) (37 °C): 0.511 ± 0.14

Sequence: AGAGAGCAAUAUUACGCUCA
- self-splicing fitness (ln) (30 °C): -2.44 ± 0.27
- self-splicing fitness (ln) (37 °C): -1.11 ± 0.21

Sequence: UCGGAGCAAUAUUACGCGUG
- self-splicing fitness (ln) (30 °C): 0.284 ± 0.17
- self-splicing fitness (ln) (37 °C): -0.281 ± 0.17

Sequence: UCUCAGCAAUAUUACGCGGA
- self-splicing fitness (ln) (30 °C): -2.54 ± 0.37
- self-splicing fitness (ln) (37 °C): -2.46 ± 0.29

Sequence: GCAUAGCAAUAUUACGGCUG
- self-splicing fitness (ln) (30 °C): -1.97 ± 0.16
- self-splicing fitness (ln) (37 °C): -1.22 ± 0.18

Sequence: GUCAAGCAAUAUUACGCUAU
- self-splicing fitness (ln) (30 °C): -4.05 ± 0.17
- self-splicing fitness (ln) (37 °C): -3.81 ± 0.15

Sequence: UACGAGCAAUAUUACGUAAU
- self-splicing fitness (ln) (30 °C): -4.22 ± 0.31
- self-splicing fitness (ln) (37 °C): -1.43 ± 0.19

Sequence: AUCCAGCAAUAUUACGGGAC
- self-splicing fitness (ln) (30 °C): -4.17 ± 0.27
- self-splicing fitness (ln) (37 °C): -3.04 ± 0.2

Sequence: ACCCAGCAAUAUUACGCCUC
- self-splicing fitness (ln) (30 °C): -1.05 ± 0.084
- self-splicing fitness (ln) (37 °C): -0.0787 ± 0.11

Sequence: AUCUAGCAAUAUUACGGAAC
- self-splicing fitness (ln) (30 °C): -4.03 ± 0.37
- self-splicing fitness (ln) (37 °C): -1.75 ± 0.24

Sequence: UGCUAGCAAUAUUACGGCUA
- self-splicing fitness (ln) (30 °C): -0.795 ± 0.17
- self-splicing fitness (ln) (37 °C): 0.345 ± 0.15

Sequence: UCGAAGCAAUAUUACGCGUG
- self-splicing fitness (ln) (30 °C): -0.488 ± 0.07
- self-splicing fitness (ln) (37 °C): -0.256 ± 0.078

Sequence: AGUUAGCAAUAUUACGCAUU
- self-splicing fitness (ln) (30 °C): -3.25 ± 0.25
- self-splicing fitness (ln) (37 °C): -0.806 ± 0.17

Sequence: ACGAAGCAAUAUUACGACCG
- self-splicing fitness (ln) (30 °C): -0.458 ± 0.12
- self-splicing fitness (ln) (37 °C): 0.219 ± 0.14

Sequence: GGUGAGCAAUAUUACGCUCU
- self-splicing fitness (ln) (30 °C): -3.87 ± 0.42
- self-splicing fitness (ln) (37 °C): -2.42 ± 0.41

Sequence: CCUUAGCAAUAUUACGACGC
- self-splicing fitness (ln) (30 °C): -3.94 ± 0.33
- self-splicing fitness (ln) (37 °C): -2.51 ± 0.29

Sequence: AAACAGCAAUAUUACGCGCC
- self-splicing fitness (ln) (30 °C): -1.13 ± 0.1
- self-splicing fitness (ln) (37 °C): -0.456 ± 0.12

Sequence: CUGAAGCAAUAUUACGUGCG
- self-splicing fitness (ln) (30 °C): 0.0994 ± 0.061
- self-splicing fitness (ln) (37 °C): -0.325 ± 0.073
